Experimental data published in US20040014207A1.

Target: murine B7-DC (murine) (UniProt Q9WUL5)
Assay: flow cytometry competition; murine bone marrow derived dendritic cells preincubated with PD-1.Ig, then stained with sHIgM12

Chain of murine B7-DC (murine) (Q9WUL5 20-247): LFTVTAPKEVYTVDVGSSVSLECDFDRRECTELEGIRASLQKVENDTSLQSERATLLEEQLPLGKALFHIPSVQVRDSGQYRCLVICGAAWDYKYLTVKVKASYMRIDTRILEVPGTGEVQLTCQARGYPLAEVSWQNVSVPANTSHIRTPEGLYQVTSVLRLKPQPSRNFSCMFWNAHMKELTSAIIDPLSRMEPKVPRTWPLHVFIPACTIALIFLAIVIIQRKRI
Chain of PD-1.Ig fusion protein (Fc fusion) (Q02242 25-169): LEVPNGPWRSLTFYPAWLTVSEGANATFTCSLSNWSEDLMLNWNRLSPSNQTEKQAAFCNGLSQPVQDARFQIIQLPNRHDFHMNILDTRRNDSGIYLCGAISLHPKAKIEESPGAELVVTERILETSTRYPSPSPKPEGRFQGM

PD-1.Ig fusion protein (Fc fusion)
sHIgM12 staining remaining, percent of the level in the absence of PD-1: 50%
